Results as given in patent US20090018074A1.

Assays:
[1] = molecular target: Cad11-12 truncated Bt-R1a cadherin expressed in S2 cells (Manduca sexta); assay: 125I-Cry1Ab saturation binding on S2 cell suspensions; reference Cad12
[2] = molecular target: Cad11-12 truncated Bt-R1a cadherin expressed in S2 cells (Manduca sexta); assay: 125I-Cry1Ab saturation binding on suspensions of S2 cells expressing the fragment
[3] = molecular target: Cad12 truncated Bt-R1a cadherin expressed in S2 cells (Manduca sexta); assay: as above
[4] = molecular target: Cad7-12 truncated Bt-R1a cadherin expressed in S2 cells (Manduca sexta); assay: as above
[5] = molecular target: full length Bt-R1a cadherin expressed in Drosophila S2 cells (Manduca sexta); assay: 125I-Cry1Ab saturation binding on suspensions of S2 cells expressing full-length Bt-R1a
[6] = molecular target: Cad7-12 truncated Bt-R1a cadherin expressed in S2 cells (Manduca sexta); assay: 125I-Cry1Ab saturation binding on suspensions of S2 cells expressing the fragment; dissociation constant (Kcom)
[7] = molecular target: full length Bt-R1a cadherin expressed in Drosophila S2 cells (Manduca sexta); assay: 125I-Cry1Ab saturation binding on suspensions of S2 cells expressing full-length Bt-R1a; dissociation constant (Kcom)

Cry1Ab toxin (ligand)
fold concentration of binding sites against Cad12 [1]: 3 fold | Bmax (concentration of receptors) (fmoles/mg protein) [2]: 3320 | Bmax (concentration of receptors) (fmoles/mg protein) [3]: 1410 | Bmax (concentration of receptors) (fmoles/mg protein) [4]: 506 | Bmax (concentration of receptors) (fmoles/mg protein) [5]: 625 | Kd [6]: 2.05 nM | Kd [7]: 3.55 nM
